Like-named read-outs stand apart in the source and are kept apart here.
Legend:
[1] = biological target: Fcγ fragment of human IgG (human); assay: BLI, Ni-NTA sensor, SpA immobilised, Fc fragment of human IgG in solution
[2] = biological target: F(ab)2 fragment of human IgG (human)
[3] = biological target: Fcγ fragment of human IgG (human)

Row | Substance | Ka [1] | human IgE affinity (human IgE) | Ka [2] | Ka [3]
1 | SpA (wild-type protein A, recombinant five IgBDs) (from UniProt P02976 37-327) | 5.17e+07 M⁻¹ |  |  | 
2 | SpAQ9,10K/G29F/D36,37A (from UniProt P02976 37-327) |  | 2.02e-05 |  | 
3 | SpAQ9,10K/S33E (from UniProt P02976 37-327) |  |  | 41.2 M⁻¹ | 32.7 M⁻¹
4 | SpAQ9,10K/S33T (from UniProt P02976 37-327) |  |  | 43.5 M⁻¹ | 39.9 M⁻¹
